Biological target: human secretory immunoglobulin A (SIgA) (human) (UniProt P01833)
Test: SPR

UniProt P01833, sequence (P01833 whole entry, looked up): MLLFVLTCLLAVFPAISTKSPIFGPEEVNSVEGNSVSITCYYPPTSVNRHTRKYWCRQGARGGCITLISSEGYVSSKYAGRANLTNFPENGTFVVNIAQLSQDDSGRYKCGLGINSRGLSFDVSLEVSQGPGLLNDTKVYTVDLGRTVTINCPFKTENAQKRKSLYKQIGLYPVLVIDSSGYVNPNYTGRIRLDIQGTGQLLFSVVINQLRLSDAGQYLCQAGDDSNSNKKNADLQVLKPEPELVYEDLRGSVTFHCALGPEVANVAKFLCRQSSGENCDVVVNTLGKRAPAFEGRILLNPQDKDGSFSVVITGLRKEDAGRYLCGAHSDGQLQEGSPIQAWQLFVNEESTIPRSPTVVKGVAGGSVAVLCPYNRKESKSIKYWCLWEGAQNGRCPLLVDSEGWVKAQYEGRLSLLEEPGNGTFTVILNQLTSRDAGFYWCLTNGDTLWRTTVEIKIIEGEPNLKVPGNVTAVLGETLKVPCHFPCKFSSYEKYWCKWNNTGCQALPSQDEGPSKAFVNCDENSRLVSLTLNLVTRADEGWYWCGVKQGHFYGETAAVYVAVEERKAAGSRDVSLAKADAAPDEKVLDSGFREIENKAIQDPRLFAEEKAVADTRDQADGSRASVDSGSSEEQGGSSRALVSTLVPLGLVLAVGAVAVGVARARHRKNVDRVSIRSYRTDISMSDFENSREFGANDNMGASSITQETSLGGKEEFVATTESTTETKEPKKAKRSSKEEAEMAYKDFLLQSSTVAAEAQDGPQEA

## EsiB (E. coli secretory immunoglobulin A-binding protein), recombinant, without signal peptide (natural protein)
  Kd: 30.2 µM
  koff: 0.042 s⁻¹
  kon: 1390 M⁻¹ s⁻¹
